# From US20240117454
# T1: Bovine neck ligament-derived elastin (SIGMA, E1625), P04985
# T1 chain: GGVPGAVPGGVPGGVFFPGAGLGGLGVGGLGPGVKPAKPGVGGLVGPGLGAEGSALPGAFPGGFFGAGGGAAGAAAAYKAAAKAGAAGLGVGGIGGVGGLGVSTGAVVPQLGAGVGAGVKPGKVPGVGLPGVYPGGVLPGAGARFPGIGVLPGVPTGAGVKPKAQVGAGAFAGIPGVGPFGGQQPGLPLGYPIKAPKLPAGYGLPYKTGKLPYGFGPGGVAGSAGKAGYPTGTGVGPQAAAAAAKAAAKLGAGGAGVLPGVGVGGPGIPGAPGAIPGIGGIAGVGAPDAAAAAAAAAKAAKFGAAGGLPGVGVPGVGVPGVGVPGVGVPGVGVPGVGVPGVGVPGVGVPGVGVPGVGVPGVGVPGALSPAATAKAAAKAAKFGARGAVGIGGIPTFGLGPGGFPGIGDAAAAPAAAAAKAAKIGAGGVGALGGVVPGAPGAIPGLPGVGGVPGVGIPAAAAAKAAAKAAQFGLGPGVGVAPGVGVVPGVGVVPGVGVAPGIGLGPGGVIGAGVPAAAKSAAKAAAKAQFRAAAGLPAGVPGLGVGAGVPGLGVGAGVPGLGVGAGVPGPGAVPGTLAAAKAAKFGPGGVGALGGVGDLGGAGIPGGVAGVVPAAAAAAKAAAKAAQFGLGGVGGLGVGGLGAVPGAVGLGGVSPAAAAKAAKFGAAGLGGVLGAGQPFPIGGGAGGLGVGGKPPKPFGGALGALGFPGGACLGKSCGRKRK
# B1: beta-lytic metallopeptidase (BLP) (protein)
# chain: SAQGHGLSGEDLVYSYDEMFDFDIDAYLAKHAPHLHKHSEEISHWAGYSGISPKVLIALMEQQSGAVSAKRATNRPFGKLARADGFGAQTREVALALRESLYERDPDGAKGPVTLARANPLQALFERSGDNEPAAALRGDGEFQLVYGRLFNEPRQAKAASDRFAKAGPDVQPLSPNGL
# B2: BLP homologue derived from Lysobacter gummosus (LgBLP) (protein)
# chain: AERGLSGQDLVYSYDEMFDFDIDAYLAKNAPHLSRHAESISHWAGYSGISPKVLIALMEQQSGAITRKHAAADAAKRPFGALAKAKDFNGQTREVAQALREALYENDGPDAKGAVTVARANPLQALFERAGASQASAKLSGDGEFQLVYGRLFNEPRQAQAPSARFAKAGPDVQPLSP
# How the values were obtained:
# [1] = target: bovine Achilles tendon-derived collagen (SIGMA, C9879)
# [2] = target: T1, Bovine neck ligament-derived elastin …
Protein,"collagen degrading activity (amount of peptides liberated, relative value to savinase) [1]","elastin degrading activity (amount of peptides liberated, relative value to savinase) [2]"
B1,had significantly lower collagen degrading activity as compared to savinase,BLP was equivalent in elastin degrading activity to savinase
B2,,LgBLP had lower elastin degrading activity as compared to savinase
